Results as given in patent WO2020003077A1 (dated 2020).
Residue numbers refer to the chain shown, from its start. Names may count otherwise. Each block holds one binder with its values, some of them ahead of it.

Assays:
human thrombin [1] = target: T1, human thrombin (human, UniProt P00734 314-363; P00734 364-622); experiment: cell-based or functional assay
prothrombin = prothrombin (UniProt P00734 44-622); experiment: ForteBio Octet, immobilized IgG
human thrombin [2] = target: T1, human thrombin; experiment: standard ELISA binding assay

- thrombin hydrolysis of FVIII (feedback activation of thrombin via Xase complex), antibody effect (human thrombin [1]): 7 fold decrease
- thrombin hydrolysis of platelet receptor PAR-1 peptide (activation of platelets), antibody effect (human thrombin [1]): 15 fold decrease
B1: wild-type anti-exosite 1 IgA antibody (antibody, V domains shown)
VH: QVQLIQSGSAVKKPGASVRVSCKVSGYTLTEAAIHWVRQAPGKGLEWMGGLDPQDGETVYAQQFKGRVTMTEDRSTDTAYMEVNNLRSEDTATYYCTTGDFSEFEPFSMDYFHFWGQGTVVTVAS
VL: EIVLTQSPATLSLSPGERATLSCRASQNVSSFLAWYQHKPGQAPRLLIYDASSRATDIPIRFSGSGSGTDFTLTISGLEPEDFAVYYCQQRRSWPPLTFGGGTKVEIKR

- binding result (prothrombin): no binding (tested: 500nM)
B2: synthetic anti-exosite 1 IgG antibody (antibody, V domains shown)
VH: B1 VH
VL: B1 VL
notes: also called synthetic IgG; anti-exosite IgG antibody

- binding result (human thrombin [2]): binds
B3: synthetic anti-exosite 1 IgG S30A variant antibody (antibody, name in Kabat numbering, V domains shown)
VH: B1 VH
VL: B1 VL with S30A
notes: also called ichorcumab S30A; ichorcumab
